Target: capture reagent (antibody) of the exenatide ELISA kit (Peninsula Laboratories Inc., # S-1311)
Experiment: ELISA (Peninsula Lab exenatide kit)

Substance: exenatide (peptide)
- EC50: 0.2 nM
